For the data set the following is noted: Rattus norvegicus; pH 7.3; 20 °C; GdnHCl; Fluorescence; potassium phosphate 20 mM; whole UniProt chain shown.

B1: Fatty acid-binding protein, intestinal wild type, P02693 (protein)
chain: MAFDGTWKVDRNENYEKFMEKMGINVVKRKLGAHDNLKLTITQEGNKFTVKESSNFRNIDVVFELGVDFAYSLADGTELTGTWTMEGNKLVGKFKRVDNGKELIAVREISGNELIQTYTYEGVEAKRIFKKE
With B1, the “denaturant midpoint (higher = more stable)” value was 1.4 M and the unfolding free energy amounted to 5 kcal/mol.

Values taken from FireProtDB (doi:10.1021/bi012042l).
